This note sets out measurements from patent US20230203158A1 (FLAGSHIP PIONEERING INNOVATIONS VII, published 2023).

Test [1] has as its target T1, Murine DSG1 (NCBI accession NP_034209.2) with a c-Myc epitope tag at the C terminus, transiently expressed in … (mouse, UniProt Q61495 50-1057).
T1 construct: whole, on cells; also called mouse DSG1; murine desmoglein-1
T1 sequence (looked up): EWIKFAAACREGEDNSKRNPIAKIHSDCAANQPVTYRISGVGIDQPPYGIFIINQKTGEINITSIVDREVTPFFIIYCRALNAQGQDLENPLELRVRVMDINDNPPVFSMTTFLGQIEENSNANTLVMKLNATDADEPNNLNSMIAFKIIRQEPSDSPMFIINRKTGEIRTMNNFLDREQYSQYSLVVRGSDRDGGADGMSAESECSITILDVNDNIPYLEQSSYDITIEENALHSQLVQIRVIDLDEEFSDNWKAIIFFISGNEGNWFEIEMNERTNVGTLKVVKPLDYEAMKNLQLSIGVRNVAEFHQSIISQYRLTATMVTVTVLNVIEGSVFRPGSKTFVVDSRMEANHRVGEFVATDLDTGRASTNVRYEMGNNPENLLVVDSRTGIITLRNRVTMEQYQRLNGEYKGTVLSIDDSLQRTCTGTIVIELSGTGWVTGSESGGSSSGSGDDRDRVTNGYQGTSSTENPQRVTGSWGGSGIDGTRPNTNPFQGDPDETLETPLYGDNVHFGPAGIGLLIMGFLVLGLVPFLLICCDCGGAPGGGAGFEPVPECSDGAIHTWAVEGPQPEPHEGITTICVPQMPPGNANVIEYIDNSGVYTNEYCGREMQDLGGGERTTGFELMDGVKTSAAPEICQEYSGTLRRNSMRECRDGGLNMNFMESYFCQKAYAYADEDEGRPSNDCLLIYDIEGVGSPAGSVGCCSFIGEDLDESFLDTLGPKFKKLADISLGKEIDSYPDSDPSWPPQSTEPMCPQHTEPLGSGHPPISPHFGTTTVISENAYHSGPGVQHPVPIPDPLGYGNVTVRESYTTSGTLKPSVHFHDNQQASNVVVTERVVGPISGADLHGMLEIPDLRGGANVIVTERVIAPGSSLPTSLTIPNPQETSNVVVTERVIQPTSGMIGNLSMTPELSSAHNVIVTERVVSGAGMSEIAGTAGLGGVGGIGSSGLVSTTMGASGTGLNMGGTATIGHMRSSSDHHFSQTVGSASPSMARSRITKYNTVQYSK
As to the kind of experiment: flow cytometry on RAW 264.7 cells transiently expressing murine DSG1. An excerpt:
Murine DSG1 (NCBI accession NP_034209.2) with a c-Myc epitope tag at the protein C terminus was transiently expressed in RAW 264.7 cells using LIPOFECTAMINE™ 3000 (ThermoFisher Scientific) according to the manufacturer's protocol.
(In flow cytometry, cells or beads pass a laser one at a time.)

In test [2] the target is T2, recombinant His-tagged human IL-10Ra (Creative Biomart) (human, UniProt Q13651 22-235).
T2 construct: also called IL-10 receptor alpha; not shown: His tag
T2 sequence (looked up): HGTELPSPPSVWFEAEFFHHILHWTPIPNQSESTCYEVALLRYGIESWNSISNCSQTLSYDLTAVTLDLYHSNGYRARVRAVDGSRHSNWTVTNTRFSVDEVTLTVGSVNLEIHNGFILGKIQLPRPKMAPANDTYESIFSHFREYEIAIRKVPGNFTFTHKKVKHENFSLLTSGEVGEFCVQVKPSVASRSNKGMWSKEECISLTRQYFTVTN
The experiment in a line: ELISA, His-tagged human IL-10Ra coated at 1 µg/mL. As for the experimental part: To test the binding of the IL-10/anti-DSG1 ANDbodies to IL-10 receptor alpha (IL-10Ra) by ELISA, recombinant His-tagged human IL-10Ra (Creative Biomart) was coated on NUNC-IMMUNO™ MAXISORP™ ELISA plates at 1 μg/mL concentration overnight. The next day, coated antigen was removed and the wells were blocked with 1% IgG-free BSA followed by incubation with 11 three-fold serially diluted anti-IL-10/anti-DSG1 ANDbodies (as provided above) with a starting concentration of 30 μg/mL. Bound antibody was detected with peroxidase-conjugated anti-human IgG antibodies with TMB and acid stop reagents.
A general note: ELISA stands for enzyme-linked immunosorbent assay.

Test [3] addresses IL-10 receptor of HEK-BLUE IL-10 cells (the cells express all the components of the IL-10 signaling pathway). The experiment in a line: cell-based or functional assay.
Test [4] has as its target T3, mouse CDH17 (NCBI accession NP 062727.1) with a c-Myc epitope tag at the C terminus, transiently expressed in … (mouse, UniProt Q9R100 26-827).
T3 construct: whole, on cells; also called cadherin 17
T3 sequence (looked up): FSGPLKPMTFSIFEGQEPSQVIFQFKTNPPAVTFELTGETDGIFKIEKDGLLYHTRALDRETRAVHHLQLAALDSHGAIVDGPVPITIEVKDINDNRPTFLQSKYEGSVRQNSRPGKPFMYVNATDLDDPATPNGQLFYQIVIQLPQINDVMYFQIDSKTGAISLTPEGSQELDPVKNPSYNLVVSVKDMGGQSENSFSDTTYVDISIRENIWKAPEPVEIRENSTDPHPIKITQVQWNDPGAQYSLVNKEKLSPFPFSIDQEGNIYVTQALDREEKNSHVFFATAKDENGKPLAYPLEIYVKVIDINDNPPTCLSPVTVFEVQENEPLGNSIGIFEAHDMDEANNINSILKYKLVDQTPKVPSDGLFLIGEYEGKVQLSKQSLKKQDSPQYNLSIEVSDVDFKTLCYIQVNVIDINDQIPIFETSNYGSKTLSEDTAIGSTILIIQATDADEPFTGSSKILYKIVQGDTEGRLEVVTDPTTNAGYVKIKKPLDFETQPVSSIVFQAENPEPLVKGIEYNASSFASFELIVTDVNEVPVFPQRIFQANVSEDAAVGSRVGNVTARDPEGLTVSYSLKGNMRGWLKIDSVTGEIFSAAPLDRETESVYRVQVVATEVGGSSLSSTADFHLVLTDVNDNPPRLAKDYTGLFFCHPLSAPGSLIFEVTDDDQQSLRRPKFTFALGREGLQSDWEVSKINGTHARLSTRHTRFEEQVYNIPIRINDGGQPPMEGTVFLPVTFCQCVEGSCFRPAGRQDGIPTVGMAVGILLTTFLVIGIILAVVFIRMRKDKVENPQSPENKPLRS
As to the kind of experiment: flow cytometry on RAW 264.7 cells transiently expressing mouse CDH17. An excerpt: To confirm binding activity and specificity, mouse CDH17 (NCBI accession NP 062727.1) with a c-Myc epitope tag at the protein C terminus was transiently expressed in RAW 264.7 cells using LIPOFECTAMINE™ 3000 (ThermoFisher Scientific) according to the manufacturer's protocol.

B1: PRO004 (anti-DSG1 antibody 3-07/1e on a human IgG1 LALA-PG backbone, lambda light chain) (antibody, V domains shown)
VH: QVQLVQSGGGLVQPGGSLRVSCAASGFTSNIFWMSWVRQAPGKGLEWVANIDEDGSEKNYVDSVKGRFTISRDNAKNSLYLQMNSLRAEDTAVYYCARESFYYGSGTYFDFWGQGTLVTVSS
VL: ELVVTQPPSVSGAPGQRVTISCTGSSSNIGAGYDVHWYQQLPGTAPKLLIYGNKNRPSGVPDRFSGSKSGTSASLAITGLRAEDEADYYCQSFDSSLGWVFGGGTQLTVLG
notes: human IgG1 with L234A, L235A, P329G
On to B1, for which the binding result in test [1] was “binds”.

B2: IL-10 Fc (Creative Biomart IL10-326H), recombinant human IL-10 fused to a human Fc domain (Fc fusion, UniProt P22301 19-178, looked up)
chain: SPGQGTQSENSCTHFPGNLPNMLRDLRDAFSRVKTFFQMKDQLDNLLLKESLLEDFKGYLGCQALSEMIQFYLEEVMPQAENQDPDIKAHVNSLGENLKTLRLRLRRCHRFLPCENKSKAVEQVKNAFNKLQEKGIYKAMSEFDIFINYIEAYMTMKIRN
notes: also called positive control IL-10 Fc; hIL-10 Fc fusion; not shown: human Fc domain and any linker of the bought product
As for B2, the binding result in test [2] is “binds”. In test [3], the “EC50 (pM), HEK-BLUE IL-10 signaling assay (SEAP)” value worked out at 50 pM.

B3: PRO061 (anti-CDH17 antibody MAB8524 on a human IgG1 LALA-PG backbone, kappa light chain) (antibody, V domains shown)
VH: QSLEESGGRLVTPGTPLTLTCTVSGFSLTSYDMNWVRQAPGKGLEWIGVVRGSGRTYYASWAKGRFTIARTSSTTVDLKMTSLTTGDTATYFCARGDANNNYYEFDIWGPGTLVTVSS
VL: QDMTQTPSPVSAAVGGTVTINCQSSQSVYGDAWLSWFQQKPGQPPKLLIYSASTLASGVPSRFKGSGSGTQFTLTISDLESDDAATYYCAGGYDGINDIRAFGGGTEVVVKR
For the molecule B3, the binding result in test [4] is “binds”.
